This is an account of results in publication PMC8213806.

Experiment [1] deals with TcdB2 (R20292 strain), recombinant full-length, from Bacillus megaterium (Clostridioides difficile (R20292 strain as printed)).
Experiment [2] deals with Repeat1-Fc (CSPG4 Repeat1, residues 410–551, fused to the N-terminus of human IgG1 Fc) (human) (UniProt Q6UVK1). Description: BLI; Repeat1-Fc (50 nM) immobilised on Anti-hIgG-Fc biosensors, TcdB1 or TcdB2 in solution; 20 mM HEPES, 400 mM NaCl, pH 7.5, 10 mM CaCl2, 0.1% Tween-20, 0.5% BSA; 1:1 binding model.
Repeat1-Fc (CSPG4 Repeat1, residues 410–551, fused to the N-terminus of human IgG1 Fc) (human), sequence (Q6UVK1 410-551): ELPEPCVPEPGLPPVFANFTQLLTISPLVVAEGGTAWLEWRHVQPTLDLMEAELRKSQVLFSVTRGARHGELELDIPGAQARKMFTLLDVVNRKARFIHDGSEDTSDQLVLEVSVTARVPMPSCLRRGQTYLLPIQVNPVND

Repeat1-Fc (CSPG4 Repeat1, residues 410–551, fused to the N-terminus of human IgG1 Fc), sequence (Q6UVK1 410-551): as above

For the substance “Repeat1-Fc (CSPG4 Repeat1, residues 410–551, fused to the N-terminus of human IgG1 Fc) (from UniProt Q6UVK1 410-551) (Fc fusion)”, in experiment [1], the neutralisation in the cell-rounding assay on HeLa cells, 24 h, Repeat1-Fc at 2 µM; cells kept from rounding was 40%.
What is called Kd is the constant that tells how readily two partners part at equilibrium. A high value points to lower affinity. The term koff denotes the first-order rate constant of dissociation. High values mean a short-lived complex, low ones a long-lived complex. As a reminder, the kon is a measure of how fast the partners come together. Low values mean slower complex formation, high ones faster complex formation. As to “TcdB2 (R20292 strain), recombinant full-length, from Bacillus megaterium (natural protein)”, in experiment [2], the Kd came to 5.4 nM, the dissociation rate constant (koff) turned out to be 4.63e-05 s⁻¹ and the kon is 8340 M⁻¹ s⁻¹.
